Target: recombinant RhoA (UniProt P61586)
Sequence (P61586 whole entry): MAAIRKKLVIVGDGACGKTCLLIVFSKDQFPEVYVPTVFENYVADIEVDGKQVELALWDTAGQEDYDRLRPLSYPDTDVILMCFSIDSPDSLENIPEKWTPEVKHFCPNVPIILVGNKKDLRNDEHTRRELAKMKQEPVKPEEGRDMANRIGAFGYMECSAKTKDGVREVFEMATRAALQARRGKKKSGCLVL

## T7-tagged TRIO(G2699V)
  RhoGEF activity (mant-GTP exchange assay): the TRIO(G2699V) mutant was more capable of activating Rho than TRIO(WT)
